The results in this text go back to the supplement of paper PMC9112550, “Optimization of the antimicrobial peptide Bac7 by deep mutational scanning” (BMC Biology, 2022).

The test system of this series is Escherichia coli TOP10. Kind of series: shrunken log2 fold change of peptide-encoding DNA abundance (4.5 h post-induction vs induction); higher = less antimicrobial activity (less host growth inhibition). The conditions noted are these: time post-induction: 4.5 h; library: site-saturation at positions 5, 18, 19, 20.
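Further: peptides expressed intracellularly from a pBAD plasmid library in pooled LB shake-flask culture, induced with 0.3% L-arabinose, DNA abundance read by NGS, three biological replicates, DESeq2 with apeglm shrinkage.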

RRIRDRPPRLPRPRPRPYKTPRP: the “shrunken log2 fold change” value was -0.0411. Then RRIRVRPPRLPRPRPRPDPDPRP, with -0.0209; and RRIRSRPPRLPRPRPRPQWTPRP, with -0.0105. As for RRIRCRPPRLPRPRPRPEGGPRP, the figure is 0.477. As for RRIRMRPPRLPRPRPRPQYVPRP, the figure is -0.0961. In the case of RRIRLRPPRLPRPRPRPPRTPRP, the “shrunken log2 fold change” value is 0.591.

Regarding RRIRARPPRLPRPRPRPQNMPRP, the “shrunken log2 fold change” value was -0.497. Then RRIRGRPPRLPRPRPRPYSNPRP, with 0.0659; and RRIRLRPPRLPRPRPRPRGSPRP, with 0.16. As for RRIRTRPPRLPRPRPRPKLCPRP, the figure is 0.0416; as for RRIRDRPPRLPRPRPRPPPMPRP, 0.519; as for RRIRSRPPRLPRPRPRPSTKPRP, -0.00791. As for RRIRPRPPRLPRPRPRPTITPRP, the “shrunken log2 fold change” value was -0.347. As for RRIRMRPPRLPRPRPRPDMHPRP, the figure is 1.15. As for RRIRARPPRLPRPRPRPPTRPRP, the figure is 1.29.

For the sequence RRIRKRPPRLPRPRPRPQQAPRP, the “shrunken log2 fold change” value is -0.0621. With RRIRDRPPRLPRPRPRPQANPRP, the “shrunken log2 fold change” value is 0.231. Take RRIRLRPPRLPRPRPRPCYYPRP: the “shrunken log2 fold change” value was -0.936. Consider RRIRGRPPRLPRPRPRPLDQPRP, for which the “shrunken log2 fold change” value was found to be 1.01.

With RRIRVRPPRLPRPRPRPVSQPRP, the “shrunken log2 fold change” value turned out to be 0.051. As for RRIRDRPPRLPRPRPRPKYKPRP, the figure is -0.739; as for RRIRERPPRLPRPRPRPSCQPRP, -0.47.

Take RRIRWRPPRLPRPRPRPVHTPRP: the “shrunken log2 fold change” value is 0.627.

Consider RRIRERPPRLPRPRPRPGLIPRP, for which the “shrunken log2 fold change” value came out at 0.101. Then RRIRSRPPRLPRPRPRPYTGPRP, with -0.125; and RRIRQRPPRLPRPRPRPKAEPRP, with 0.45; and RRIRQRPPRLPRPRPRPHWTPRP, with -0.0125. For RRIRTRPPRLPRPRPRPQNRPRP, the “shrunken log2 fold change” value is -0.199. As for RRIRLRPPRLPRPRPRPYCCPRP, the figure is -1.03.

Regarding RRIRTRPPRLPRPRPRPEFDPRP, the “shrunken log2 fold change” value came to 0.214.

Consider RRIRLRPPRLPRPRPRPPWYPRP, for which the “shrunken log2 fold change” value is -0.312. As for RRIRHRPPRLPRPRPRPRIPPRP, the figure is -0.32; as for RRIRCRPPRLPRPRPRPIVRPRP, -0.793; as for RRIRCRPPRLPRPRPRPTHFPRP, 0.526.

As for RRIRRRPPRLPRPRPRPGPYPRP, the “shrunken log2 fold change” value was 0.18. Then RRIRIRPPRLPRPRPRPNCTPRP, with -0.663; and RRIRVRPPRLPRPRPRPVSMPRP, with -0.066. Then RRIRRRPPRLPRPRPRPWITPRP, with -0.0428. Then RRIRLRPPRLPRPRPRPWGSPRP, with 0.103; and RRIRRRPPRLPRPRPRPYSSPRP, with -0.0612; and RRIRWRPPRLPRPRPRPNTHPRP, with -0.231. Turning to RRIRDRPPRLPRPRPRPCRFPRP, the “shrunken log2 fold change” value is -0.00146.

Regarding RRIRVRPPRLPRPRPRPPMSPRP, the “shrunken log2 fold change” value is -0.249. As for RRIRARPPRLPRPRPRPKSFPRP, the figure is 0.0951; as for RRIRGRPPRLPRPRPRPCFLPRP, 0.0171; as for RRIRIRPPRLPRPRPRPVSFPRP, 0.00232. As to RRIRFRPPRLPRPRPRPEYIPRP, the “shrunken log2 fold change” value is -0.0963. As for RRIRYRPPRLPRPRPRPKKNPRP, the figure is -0.231; as for RRIRWRPPRLPRPRPRPGMCPRP, 0.437; as for RRIRDRPPRLPRPRPRPPRYPRP, 0.244.

Consider RRIRRRPPRLPRPRPRPHDTPRP, for which the “shrunken log2 fold change” value is -0.0817. RRIRIRPPRLPRPRPRPQMKPRP: the “shrunken log2 fold change” value is -0.747.

For RRIRWRPPRLPRPRPRPYTKPRP, the “shrunken log2 fold change” value worked out at 0.000534. Then RRIRRRPPRLPRPRPRPESCPRP, with 0.763; and RRIRERPPRLPRPRPRPPPAPRP, with 0.365; and RRIRTRPPRLPRPRPRPYHTPRP, with -0.723. Then RRIRWRPPRLPRPRPRPTGVPRP, with 0.334.

On to RRIRGRPPRLPRPRPRPPTEPRP, for which the “shrunken log2 fold change” value worked out at 1.04. Then RRIRNRPPRLPRPRPRPGSYPRP, with -0.442; and RRIRERPPRLPRPRPRPIGEPRP, with 0.128. Then RRIRARPPRLPRPRPRPCLPPRP, with 0.0185; and RRIRIRPPRLPRPRPRPNEHPRP, with -0.459. As for RRIRMRPPRLPRPRPRPDHKPRP, the figure is 0.0228; as for RRIRVRPPRLPRPRPRPVEMPRP, -0.0393.

For RRIRARPPRLPRPRPRPDASPRP, the “shrunken log2 fold change” value came to 1.94. Then RRIRWRPPRLPRPRPRPEPWPRP, with 0.725. As for RRIRGRPPRLPRPRPRPQVGPRP, the figure is 0.395; as for RRIRQRPPRLPRPRPRPVEKPRP, 0.0119; as for RRIRARPPRLPRPRPRPRQSPRP, 0.233. Then RRIRQRPPRLPRPRPRPQCQPRP, with 0.05. As to RRIRFRPPRLPRPRPRPEVSPRP, the “shrunken log2 fold change” value is -0.149. As for RRIRERPPRLPRPRPRPRRLPRP, the “shrunken log2 fold change” value was 0.138. Then RRIRWRPPRLPRPRPRPAAKPRP, with 0.482. As for RRIRFRPPRLPRPRPRPSGIPRP, the figure is -0.287; as for RRIRCRPPRLPRPRPRPGLFPRP, 0.154; as for RRIRQRPPRLPRPRPRPQTVPRP, -0.0925. As for RRIRIRPPRLPRPRPRPSYCPRP, the figure is -0.408; as for RRIRWRPPRLPRPRPRPGVPPRP, 0.184. For RRIRFRPPRLPRPRPRPEHWPRP, the “shrunken log2 fold change” value worked out at 0.0716. As to RRIRIRPPRLPRPRPRPRWDPRP, the “shrunken log2 fold change” value was -0.12. Then RRIRDRPPRLPRPRPRPNFFPRP, with 0.144. Then RRIRSRPPRLPRPRPRPQNTPRP, with -0.522; and RRIRCRPPRLPRPRPRPITMPRP, with -0.309. Then RRIRGRPPRLPRPRPRPSPEPRP, with 0.498; and RRIRFRPPRLPRPRPRPYRLPRP, with 0.0227. For the sequence RRIRMRPPRLPRPRPRPQDMPRP, the “shrunken log2 fold change” value was -0.0638. As for RRIRPRPPRLPRPRPRPVQRPRP, the figure is 0.0521.

For the sequence RRIRGRPPRLPRPRPRPMMWPRP, the “shrunken log2 fold change” value came out at 0.412. As for RRIRHRPPRLPRPRPRPQKVPRP, the “shrunken log2 fold change” value is -0.0567. Then RRIRLRPPRLPRPRPRPACQPRP, with -0.0858; and RRIRVRPPRLPRPRPRPIRCPRP, with -0.0498; and RRIRYRPPRLPRPRPRPKIMPRP, with -0.131. As for RRIRHRPPRLPRPRPRPEEYPRP, the figure is -0.289; as for RRIRARPPRLPRPRPRPVAQPRP, 0.661.

Take RRIRFRPPRLPRPRPRPWDTPRP: the “shrunken log2 fold change” value was -0.421. Then RRIRPRPPRLPRPRPRPKGNPRP, with -0.097. Take RRIRFRPPRLPRPRPRPAFHPRP: the “shrunken log2 fold change” value was -0.228. As for RRIRNRPPRLPRPRPRPAAPPRP, the figure is 0.331; as for RRIRQRPPRLPRPRPRPDWHPRP, -0.038. RRIRIRPPRLPRPRPRPAWWPRP: the “shrunken log2 fold change” value stood at 0.0406. Consider RRIRPRPPRLPRPRPRPFMCPRP, for which the “shrunken log2 fold change” value is -0.164. Then RRIRGRPPRLPRPRPRPKKIPRP, with 0.494. As for RRIRLRPPRLPRPRPRPVANPRP, the figure is -0.0731. Then RRIRGRPPRLPRPRPRPITNPRP, with 0.201.

Turning to RRIRARPPRLPRPRPRPKAFPRP, the “shrunken log2 fold change” value turned out to be 0.269.

RRIRTRPPRLPRPRPRPDHMPRP: the “shrunken log2 fold change” value is -0.109. For RRIRDRPPRLPRPRPRPNELPRP, the “shrunken log2 fold change” value is -0.0493.

As for RRIRNRPPRLPRPRPRPRCCPRP, the “shrunken log2 fold change” value is -0.247. As for RRIRDRPPRLPRPRPRPLKVPRP, the “shrunken log2 fold change” value was -0.0261. For the sequence RRIRWRPPRLPRPRPRPCANPRP, the “shrunken log2 fold change” value stood at 0.0268. Then RRIRLRPPRLPRPRPRPSYSPRP, with -0.589. As for RRIRYRPPRLPRPRPRPDDNPRP, the figure is 0.0238; as for RRIRVRPPRLPRPRPRPRAYPRP, -0.224. With RRIRGRPPRLPRPRPRPDQAPRP, the “shrunken log2 fold change” value was found to be 0.925. As for RRIRARPPRLPRPRPRPIMRPRP, the figure is 0.491; as for RRIRSRPPRLPRPRPRPIHFPRP, -0.106.

On to RRIRTRPPRLPRPRPRPIDIPRP, for which the “shrunken log2 fold change” value stood at 0.0364. As for RRIRPRPPRLPRPRPRPKMLPRP, the figure is -0.222; as for RRIRWRPPRLPRPRPRPIMMPRP, -0.312; as for RRIRTRPPRLPRPRPRPGDWPRP, 0.73. As for RRIRYRPPRLPRPRPRPRGYPRP, the figure is -0.365; as for RRIRTRPPRLPRPRPRPDDQPRP, -0.052. Turning to RRIRSRPPRLPRPRPRPHRHPRP, the “shrunken log2 fold change” value was -0.0713. Take RRIRRRPPRLPRPRPRPDEPPRP: the “shrunken log2 fold change” value is -0.0328.

Turning to RRIRVRPPRLPRPRPRPQWPPRP, the “shrunken log2 fold change” value came out at 0.336.
